Results reported in patent US20210238260A1.

Molecular target: antithrombin III (plasma purified human AT-III), used as the AT-III/unfractionated heparin complex (human), P01008
Assay: K0.5: AT-III/UFH titrated against FIXa, 10 s, residual cleavage of Mesyl-D-CHG-Gly-Arg-AMC
Conditions: remark: other sources report otherwise

B1: FIXa-R318Y/R338E/R403E/E410N, P00740 47-191; P00740 227-461 (enzyme)
chain 1: YNSGKLEEFVQGNLERECMEEKCSFEEAREVFENTERTTEFWKQYVDGDQCESNPCLNGGSCKDDINSYECWCPFGFEGKNCELDVTCNIKNGRCEQFCKNSADNKVVCSCTEGYRLAENQKSCEPAVPFPCGRVSVSQTSKLTR
chain 2: VVGGEDAKPGQFPWQVVLNGKVDAFCGGSIVNEKWIVTAAHCVETGVKITVVAGEHNIEETEHTEQKRNVIRIIPHHNYNAAINKYNHDIALLELDEPLVLNSYVTPICIADKEYTNIFLKFGSGYVSGWGRVFHKGYSALVLQYLRVPLVDRATCLESTKFTIYNNMFCAGFHEGGRDSCQGDSGGPHVTEVEGTSFLTGIISWGEECAMKGKYGIYTKVSEYVNWIKNKTKLT
Which IC50 does the source give for B1 here?
The IC50 was 5.88 µM.
